# Measurements as given in article PMC8703697.
# Columns and labels:
# [1] = target: human factor XIIa (human) (UniProt P00748)
# human factor XIa (human) = human factor XIa (human) (UniProt P03951)
# [2] = target: human plasma Kallikrein (human) (UniProt P03952)
# [3] = target: human thrombin (FIIa) (human) (UniProt P00734)
# [4] = target: human thrombin (FIIa) (human) (UniProt P00734); remark: listed apart in the source
# [5] = target: human thrombin (FIIa) (human) (UniProt P00734); remark: listed apart in the source
# [6] = target: human thrombin (FIIa) (human) (UniProt P00734); remark: listed apart in the source
# Chain of UniProt P00748 (P00748 20-372, chain 1 of 2): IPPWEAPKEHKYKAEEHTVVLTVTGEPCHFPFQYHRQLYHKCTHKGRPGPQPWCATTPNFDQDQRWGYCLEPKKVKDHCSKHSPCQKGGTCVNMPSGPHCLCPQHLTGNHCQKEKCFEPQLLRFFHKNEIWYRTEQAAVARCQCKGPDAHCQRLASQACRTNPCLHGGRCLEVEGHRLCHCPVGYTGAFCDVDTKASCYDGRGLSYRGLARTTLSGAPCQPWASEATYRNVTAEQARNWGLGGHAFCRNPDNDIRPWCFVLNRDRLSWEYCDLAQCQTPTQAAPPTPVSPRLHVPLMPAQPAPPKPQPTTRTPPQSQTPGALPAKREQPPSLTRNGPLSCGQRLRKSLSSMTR
# Chain of UniProt P00748 (P00748 373-615, chain 2 of 2): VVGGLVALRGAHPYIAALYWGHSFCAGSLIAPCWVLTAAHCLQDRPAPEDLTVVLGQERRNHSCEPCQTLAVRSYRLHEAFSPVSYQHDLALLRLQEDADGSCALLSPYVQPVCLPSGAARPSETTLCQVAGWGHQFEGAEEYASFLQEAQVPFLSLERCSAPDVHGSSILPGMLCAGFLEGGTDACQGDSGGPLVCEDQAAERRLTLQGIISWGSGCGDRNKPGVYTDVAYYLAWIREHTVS
# Chain of UniProt P03951 (P03951 19-387, chain 1 of 2): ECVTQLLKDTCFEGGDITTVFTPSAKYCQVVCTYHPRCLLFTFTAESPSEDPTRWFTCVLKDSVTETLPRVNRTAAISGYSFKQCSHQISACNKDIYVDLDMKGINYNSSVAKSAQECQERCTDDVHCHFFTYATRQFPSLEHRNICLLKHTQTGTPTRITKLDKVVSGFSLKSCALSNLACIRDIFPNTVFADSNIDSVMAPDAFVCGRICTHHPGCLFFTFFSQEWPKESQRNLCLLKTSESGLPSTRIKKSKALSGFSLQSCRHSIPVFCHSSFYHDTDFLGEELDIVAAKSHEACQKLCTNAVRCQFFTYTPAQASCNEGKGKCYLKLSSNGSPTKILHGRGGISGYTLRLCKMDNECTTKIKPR
# Chain of UniProt P03951 (P03951 388-625, chain 2 of 2): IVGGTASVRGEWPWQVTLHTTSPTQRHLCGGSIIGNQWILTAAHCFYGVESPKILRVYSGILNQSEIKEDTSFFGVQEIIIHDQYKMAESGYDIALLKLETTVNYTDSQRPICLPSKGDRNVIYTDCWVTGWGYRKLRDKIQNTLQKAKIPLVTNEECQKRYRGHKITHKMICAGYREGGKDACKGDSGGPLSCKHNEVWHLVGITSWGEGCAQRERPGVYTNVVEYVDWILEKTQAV
# Chain of UniProt P03952 (P03952 20-390, chain 1 of 2): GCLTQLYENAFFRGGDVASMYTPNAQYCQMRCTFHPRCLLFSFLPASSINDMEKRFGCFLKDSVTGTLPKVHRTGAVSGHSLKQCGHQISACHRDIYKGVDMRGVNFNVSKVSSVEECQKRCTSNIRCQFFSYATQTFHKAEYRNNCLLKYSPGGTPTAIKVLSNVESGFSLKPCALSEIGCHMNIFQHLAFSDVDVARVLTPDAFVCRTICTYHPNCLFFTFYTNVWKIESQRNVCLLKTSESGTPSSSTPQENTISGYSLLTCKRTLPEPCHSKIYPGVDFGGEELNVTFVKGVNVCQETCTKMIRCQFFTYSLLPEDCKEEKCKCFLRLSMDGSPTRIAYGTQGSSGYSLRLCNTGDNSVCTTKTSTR
# Chain of UniProt P03952 (P03952 391-638, chain 2 of 2): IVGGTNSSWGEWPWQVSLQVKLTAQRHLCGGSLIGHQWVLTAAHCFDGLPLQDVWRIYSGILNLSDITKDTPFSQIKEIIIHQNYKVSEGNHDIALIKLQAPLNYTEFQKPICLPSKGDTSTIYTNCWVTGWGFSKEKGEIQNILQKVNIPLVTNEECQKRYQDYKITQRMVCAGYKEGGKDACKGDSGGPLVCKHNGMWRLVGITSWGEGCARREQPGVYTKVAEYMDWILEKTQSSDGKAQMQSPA
substance,measurement,setting,value
recombinant Dromaserpin (rDromaserpin) (natural protein),"inhibition of FXIIa (15 nM) activity on S-2302 with 1 µM and 5 µM rDromaserpin (no effect at 1 µM, ~29% at 5 µM)",[1],29%
same,"inhibition of FXIa (3.7 nM) activity (BIOPHEN kit) with 1 µM and 5 µM rDromaserpin (no effect at 1 µM, ~48% at 5 µM)",human factor XIa (human),48%
same,decrease of Kallikrein (10 nM) catalytic activity on S-2302 with 1 µM and 5 µM rDromaserpin (~30% and ~76%),[2],76%
same,"decrease of thrombin (2U) catalytic activity on S-2238 with 1 µM and 5 µM rDromaserpin (87% and 89%), 15 min pre-incubation at 37 °C",[3],89%
same,residual activity of thrombin (2U) on the chromogenic substrate S-2238 with rDromaserpin from 0.02 to 1 µM; IC50,[4],160 nM
same,"residual activity of thrombin (2U) with 0.2 µM rDromaserpin and heparin from 0 to 7.2 µM (48.11% without heparin, 12.5% at 2.4 µM heparin, less acceleration from 5.6 µM)",[5],48.1%
same,reduction of thrombin-induced aggregation of washed human platelets; 10 µM rDromaserpin pre-incubated 10 min at 37 °C with thrombin,[6],88.2%
